Results taken from patent US7138262.

B1: Gene-Activated GCB (GA-GCB) from untreated HT-1080 cells (enzyme)
chain: ARPCIPKSFGYSSVVCVCNATYCDSFDPPTFPALGTFSRYESTRSGRRMELSMGPIQANHTGTGLLLTLQPEQKFQKVKGFGGAMTDAAALNILALSPPAQNLLLKSYFSEEGIGYNIIRVPMASCDFSIRTYTYADTPDDFQLHNFSLPEEDTKLKIPLIHRALQLAQRPVSLLASPWTSPTWLKTNGAVNGKGSLKGQPGDIYHQTWARYFVKFLDAYAEHKLQFWAVTAENEPSAGLLSGYPFQCLGFTPEHQRDFIARDLGPTLANSTHHNVRLLMLDDQRLLLPHWAKVVLTDPEAAKYVHGIAVHWYLDFLAPAKATLGETHRLFPNTMLFASEACVGSKFWEQSVRLGSWDRGMQYSHSIITNLLYHVVGWTDWNLALNPEGGPNWVRNFVDSPIIVDITKDTFYKQPMFYHLGHFSKFIPEGSQRVGLVASQKNDLDAVALMHPDGSAVVVVLNRSSKDVPLTIKDPAVGFLETISPGYSIHTYLWRRQ
modifications: N-linked glycans as processed by untreated HT-1080 cells (no mannosidase inhibitor)
B2: Gene-Activated GCB (GA-GCB) from HT-1080 cells treated with swainsonine (1 µg/mL) (enzyme)
chain: B1 chain
modifications: N-linked glycans not trimmed by Golgi mannosidase II (cells treated with the class 2 mannosidase inhibitor swainsonine, 1 µg/mL)
B3: Gene-Activated GCB (GA-GCB) from HT-1080 cells treated with kifunensine (1 µg/mL) (enzyme)
chain: B1 chain
modifications: N-linked high mannose glycans (cells treated with the class 1 mannosidase inhibitor kifunensine, 1 µg/mL)

Target: T1, mannose receptor on mouse J774E macrophage cells (mouse) (UniProt Q61830)
T1 sequence (looked up): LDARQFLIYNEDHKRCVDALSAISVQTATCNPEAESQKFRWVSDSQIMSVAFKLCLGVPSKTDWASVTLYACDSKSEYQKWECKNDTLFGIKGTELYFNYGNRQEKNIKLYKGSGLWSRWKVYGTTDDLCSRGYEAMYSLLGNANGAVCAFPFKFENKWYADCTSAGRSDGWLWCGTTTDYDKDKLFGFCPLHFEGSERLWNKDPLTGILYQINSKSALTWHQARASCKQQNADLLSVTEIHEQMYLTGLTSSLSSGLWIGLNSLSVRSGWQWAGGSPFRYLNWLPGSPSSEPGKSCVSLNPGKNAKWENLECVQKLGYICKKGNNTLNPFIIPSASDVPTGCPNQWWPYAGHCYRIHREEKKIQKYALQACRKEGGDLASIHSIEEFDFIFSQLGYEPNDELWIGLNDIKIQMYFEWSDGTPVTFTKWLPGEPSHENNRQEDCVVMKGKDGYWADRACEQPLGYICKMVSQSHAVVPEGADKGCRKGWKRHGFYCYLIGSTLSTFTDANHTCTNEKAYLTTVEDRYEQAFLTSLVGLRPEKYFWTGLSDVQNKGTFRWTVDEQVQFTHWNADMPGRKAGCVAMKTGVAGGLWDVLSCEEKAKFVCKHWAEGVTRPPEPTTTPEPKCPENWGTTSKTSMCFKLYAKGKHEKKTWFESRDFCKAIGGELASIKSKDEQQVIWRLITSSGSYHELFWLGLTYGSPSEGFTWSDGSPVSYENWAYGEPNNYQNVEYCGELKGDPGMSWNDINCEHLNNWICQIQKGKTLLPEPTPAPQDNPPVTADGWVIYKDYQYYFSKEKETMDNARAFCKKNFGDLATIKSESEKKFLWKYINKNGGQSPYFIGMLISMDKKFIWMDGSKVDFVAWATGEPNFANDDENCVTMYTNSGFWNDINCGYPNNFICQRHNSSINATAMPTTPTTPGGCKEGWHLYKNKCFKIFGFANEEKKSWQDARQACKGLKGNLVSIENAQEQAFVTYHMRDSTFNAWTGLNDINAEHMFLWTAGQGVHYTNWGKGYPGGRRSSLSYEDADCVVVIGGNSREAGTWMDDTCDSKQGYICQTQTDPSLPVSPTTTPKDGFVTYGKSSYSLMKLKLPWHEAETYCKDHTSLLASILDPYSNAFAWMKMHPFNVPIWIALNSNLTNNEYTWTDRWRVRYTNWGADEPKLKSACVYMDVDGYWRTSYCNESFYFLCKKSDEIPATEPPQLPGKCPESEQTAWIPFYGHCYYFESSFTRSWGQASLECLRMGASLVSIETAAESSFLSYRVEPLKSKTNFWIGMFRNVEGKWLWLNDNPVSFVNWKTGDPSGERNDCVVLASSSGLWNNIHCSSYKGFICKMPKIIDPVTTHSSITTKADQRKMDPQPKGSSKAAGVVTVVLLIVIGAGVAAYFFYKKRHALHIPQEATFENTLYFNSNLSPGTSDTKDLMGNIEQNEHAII
Experiment: cell-based or functional assay

Binder | Inhibition (%) of uptake into J774E cells by mannan [%] | Internalization into J774E cells in the presence of 2 µg/mL mannan: glucocerebrosidase activity (Units/mg cell lysate), absolute (Units/mg cell lysate) | Internalization into J774E cells in the presence of 2 µg/mL mannan: glucocerebrosidase activity (Units/mg cell lysate), background corrected (Units/mg cell lysate) | Internalization into J774E cells: glucocerebrosidase activity (Units/mg cell lysate), absolute (Units/mg cell lysate) | Internalization into J774E cells: glucocerebrosidase activity (Units/mg cell lysate), background corrected (Units/mg cell lysate) | Uptake into J774E cells, fold over background [fold] | Uptake into J774E cells relative to GA-GCB from swainsonine treated cells [fold]
B1 | 53 | 1680 | 1020 | 2820 | 2160 | 3 | –
B2 | 67 | 2040 | 1380 | 4790 | 4130 | 7 | –
B3 | 73 | 2980 | 2320 | 9180 | 8530 | 14 | 2
